Molecular target: the molecule itself
Assay: SEC; Superdex 200 Increase 10/300 GL, McIlvaine buffer pH 4.6, 0.3 mL/min; purified protein; fractions tested by 4-MUF fucosidase activity (FUCA1) or H6-tag western blot (FUCA2-H6)

Row | Protein | binding result
1 | H6-tagged human tissue α-L-fucosidase 1 (FUCA1-H6) (enzyme, UniProt P04066 32-466, looked up, human tissue α-L-fucosidase FUCA1; N-glycosylated; also called H6-tagged FUCA1; H6-tagged human fucosidase; source: HT1080 cells, stably expressing, conditioned medium, purified (Ni-NTA)) QPPRRYTPDWPSLDSRPLPAWFDEAKFGVFIHWGVFSVPAWGSEWFWWHWQGEGRPQYQRFMRDNYPPGFSYADFGPQFTARFFHPEEWADLFQAAGAKYVVLTTKHHEGFTNWPSPVSWNWNSKDVGPHRDLVGELGTALRKRNIRYGLYHSLLEWFHPLYLLDKKNGFKTQHFVSAKTMPELYDLVNSYKPDLIWSDGEWECPDTYWNSTNFLSWLYNDSPVKDEVVVNDRWGQNCSCHHGGYYNCEDKFKPQSLPDHKWEMCTSIDKFSWGYRRDMALSDVTEESEIISELVQTVSLGGNYLLNIGPTKDGLIVPIFQERLLAVGKWLSINGEAIYASKPWRVQWEKNTTSVWYTSKGSAVYAIFLHWPENGVLNLESPITTSTTKITMLGIQGDLKWSTDPDKGLFISLPQLPPSAVPAEFAWTIKLTGVK | binds
2 | untagged human tissue α-L-fucosidase 1 (FUCA1) (enzyme, UniProt P04066 32-466, looked up, human tissue α-L-fucosidase FUCA1; untagged, secreted into the medium; N-glycosylated; also called untagged FUCA1; hFUCA1; source: CHO-K1 cells, stably expressing, conditioned medium, purified (ammonium sulfate precipitation, strong cation exchange)) QPPRRYTPDWPSLDSRPLPAWFDEAKFGVFIHWGVFSVPAWGSEWFWWHWQGEGRPQYQRFMRDNYPPGFSYADFGPQFTARFFHPEEWADLFQAAGAKYVVLTTKHHEGFTNWPSPVSWNWNSKDVGPHRDLVGELGTALRKRNIRYGLYHSLLEWFHPLYLLDKKNGFKTQHFVSAKTMPELYDLVNSYKPDLIWSDGEWECPDTYWNSTNFLSWLYNDSPVKDEVVVNDRWGQNCSCHHGGYYNCEDKFKPQSLPDHKWEMCTSIDKFSWGYRRDMALSDVTEESEIISELVQTVSLGGNYLLNIGPTKDGLIVPIFQERLLAVGKWLSINGEAIYASKPWRVQWEKNTTSVWYTSKGSAVYAIFLHWPENGVLNLESPITTSTTKITMLGIQGDLKWSTDPDKGLFISLPQLPPSAVPAEFAWTIKLTGVK | binds
